Assay results taken from patent EP4786492A1.

Key:
[1] = molecular target: human delta-like ligand 3 (DLL3) on SHP77 cells (human) (UniProt Q9NYJ7); assay: FACS on SHP77 cells
[2] = molecular target: DLL3 endogenously expressed on NCI-H82 cells (UniProt Q9NYJ7); assay: FACS on NCI-H82 cells; antibody 4 nM
[3] = molecular target: DLL3 endogenously expressed on NCI-H82 cells (UniProt Q9NYJ7); assay: FACS on NCI-H82 cells; antibody 20 nM
[4] = molecular target: DLL3 endogenously expressed on NCI-H82 cells (UniProt Q9NYJ7); assay: FACS on NCI-H82 cells; antibody 0.8 nM
[5] = molecular target: DLL3 endogenously expressed on NCI-H82 cells (UniProt Q9NYJ7); assay: FACS on NCI-H82 cells; antibody 100 nM
[6] = molecular target: DLL3 endogenously expressed on NCI-H82 cells (UniProt Q9NYJ7); assay: FACS on NCI-H82 cells; antibody 0.16 nM
[7] = molecular target: human DLL3 protein expressed on CHO-K1 recombinant cells (human DLL3 extracellular segment fused to EpCAM transmembrane and intracellular regions) (human) (UniProt Q9NYJ7); assay: FACS, CHO-K1 hDLL3 cells, 4 nM antibody
[8] = molecular target: mouse DLL3 on CHO-K1-mDLL3 cells (mouse) (UniProt O88516); assay: FACS, CHO-K1-mDLL3 cells, 4 nM antibody
[9] = molecular target: DLL3 endogenously expressed on NCI-H82 cells (UniProt Q9NYJ7); assay: FACS on NCI-H82 cells; antibody 0.032 nM
[10] = molecular target: human DLL3 protein expressed on CHO-K1 recombinant cells (human DLL3 extracellular segment fused to EpCAM transmembrane and intracellular regions) (human) (UniProt Q9NYJ7); assay: FACS, CHO-K1 hDLL3 cells, 20 nM antibody
[11] = molecular target: mouse DLL3 on CHO-K1-mDLL3 cells (mouse) (UniProt O88516); assay: FACS, CHO-K1-mDLL3 cells, 20 nM antibody
[12] = molecular target: DLL3 endogenously expressed on NCI-H82 cells (UniProt Q9NYJ7); assay: FACS on NCI-H82 cells; antibody 0.0064 nM
[13] = molecular target: human DLL3 protein expressed on CHO-K1 recombinant cells (human DLL3 extracellular segment fused to EpCAM transmembrane and intracellular regions) (human) (UniProt Q9NYJ7); assay: FACS, CHO-K1 hDLL3 cells, 0.8 nM antibody
[14] = molecular target: human DLL3 protein expressed on CHO-K1 recombinant cells (human DLL3 extracellular segment fused to EpCAM transmembrane and intracellular regions) (human) (UniProt Q9NYJ7); assay: FACS, CHO-K1 hDLL3 cells, 100 nM antibody
[15] = molecular target: mouse DLL3 on CHO-K1-mDLL3 cells (mouse) (UniProt O88516); assay: FACS, CHO-K1-mDLL3 cells, 0.8 nM antibody
[16] = molecular target: mouse DLL3 on CHO-K1-mDLL3 cells (mouse) (UniProt O88516); assay: FACS, CHO-K1-mDLL3 cells, 100 nM antibody
[17] = molecular target: DLL3 endogenously expressed on NCI-H82 cells (UniProt Q9NYJ7); assay: FACS on NCI-H82 cells; antibody 0.00128 nM
[18] = molecular target: human DLL3 protein expressed on CHO-K1 recombinant cells (human DLL3 extracellular segment fused to EpCAM transmembrane and intracellular regions) (human) (UniProt Q9NYJ7); assay: FACS, CHO-K1 hDLL3 cells, 0.16 nM antibody
[19] = molecular target: mouse DLL3 on CHO-K1-mDLL3 cells (mouse) (UniProt O88516); assay: FACS, CHO-K1-mDLL3 cells, 0.16 nM antibody
[20] = molecular target: human DLL3 protein expressed on CHO-K1 recombinant cells (human DLL3 extracellular segment fused to EpCAM transmembrane and intracellular regions) (human) (UniProt Q9NYJ7); assay: FACS, CHO-K1 hDLL3 cells, 0.032 nM antibody
[21] = molecular target: monkey DLL3 on CHO-K1-cyno DLL3 cells (cynomolgus monkey); assay: FACS, CHO-K1-cyno DLL3 cells, 4 nM antibody
[22] = molecular target: mouse DLL3 on CHO-K1-mDLL3 cells (mouse) (UniProt O88516); assay: FACS, CHO-K1-mDLL3 cells, 0.032 nM antibody
[23] = molecular target: human DLL3 protein expressed on CHO-K1 recombinant cells (human DLL3 extracellular segment fused to EpCAM transmembrane and intracellular regions) (human) (UniProt Q9NYJ7); assay: FACS, CHO-K1 hDLL3 cells, 0.0064 nM antibody
[24] = molecular target: monkey DLL3 on CHO-K1-cyno DLL3 cells (cynomolgus monkey); assay: FACS, CHO-K1-cyno DLL3 cells, 20 nM antibody
[25] = molecular target: mouse DLL3 on CHO-K1-mDLL3 cells (mouse) (UniProt O88516); assay: FACS, CHO-K1-mDLL3 cells, 0.0064 nM antibody
[26] = molecular target: human DLL3 protein expressed on CHO-K1 recombinant cells (human DLL3 extracellular segment fused to EpCAM transmembrane and intracellular regions) (human) (UniProt Q9NYJ7); assay: FACS, CHO-K1 hDLL3 cells, 0.00128 nM antibody
[27] = molecular target: monkey DLL3 on CHO-K1-cyno DLL3 cells (cynomolgus monkey); assay: FACS, CHO-K1-cyno DLL3 cells, 0.8 nM antibody
[28] = molecular target: monkey DLL3 on CHO-K1-cyno DLL3 cells (cynomolgus monkey); assay: FACS, CHO-K1-cyno DLL3 cells, 100 nM antibody
[29] = molecular target: mouse DLL3 on CHO-K1-mDLL3 cells (mouse) (UniProt O88516); assay: FACS, CHO-K1-mDLL3 cells, 0.00128 nM antibody
[30] = molecular target: monkey DLL3 on CHO-K1-cyno DLL3 cells (cynomolgus monkey); assay: FACS, CHO-K1-cyno DLL3 cells, 0.16 nM antibody
[31] = molecular target: monkey DLL3 on CHO-K1-cyno DLL3 cells (cynomolgus monkey); assay: FACS, CHO-K1-cyno DLL3 cells, 0.032 nM antibody
[32] = molecular target: monkey DLL3 on CHO-K1-cyno DLL3 cells (cynomolgus monkey); assay: FACS, CHO-K1-cyno DLL3 cells, 0.0064 nM antibody
[33] = molecular target: monkey DLL3 on CHO-K1-cyno DLL3 cells (cynomolgus monkey); assay: FACS, CHO-K1-cyno DLL3 cells, 0.00128 nM antibody
[34] = molecular target: human DLL1 protein (Acro, Cat. No. DL1-H52H8) (human) (UniProt O00548); assay: ELISA, coated hDLL1; maximum over 0.1, 1, 10, 100 nM antibody
[35] = molecular target: human DLL4 protein (Acro, Cat. No. DL4-H5227) (human) (UniProt Q9NR61); assay: ELISA, coated hDLL4; maximum over 0.1, 1, 10, 100 nM antibody
[36] = molecular target: human DLL3 protein (extracellular segment, His tag) (human) (UniProt Q9NYJ7); assay: SPR (Biacore 8K), antibody captured on Protein A chip, DLL3 antigen in solution, 1:1 Langmuir fit
Sequence of human DLL3 protein (extracellular segment, His tag) (human) (Q9NYJ7 27-492): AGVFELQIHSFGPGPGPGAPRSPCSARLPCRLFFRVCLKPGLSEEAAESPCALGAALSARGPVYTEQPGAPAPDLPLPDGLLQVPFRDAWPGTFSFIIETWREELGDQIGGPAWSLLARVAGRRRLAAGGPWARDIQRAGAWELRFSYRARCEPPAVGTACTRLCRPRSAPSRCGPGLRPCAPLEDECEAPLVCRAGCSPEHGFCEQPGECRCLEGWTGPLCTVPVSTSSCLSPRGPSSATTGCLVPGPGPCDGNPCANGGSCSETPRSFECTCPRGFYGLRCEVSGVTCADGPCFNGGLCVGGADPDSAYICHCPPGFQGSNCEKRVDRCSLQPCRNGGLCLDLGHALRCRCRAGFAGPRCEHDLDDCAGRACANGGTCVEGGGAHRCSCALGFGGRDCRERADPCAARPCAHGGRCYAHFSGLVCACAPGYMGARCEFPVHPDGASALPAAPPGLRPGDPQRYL

Sequence of monkey DLL3 on CHO-K1-cyno DLL3 cells (cynomolgus monkey) (chain, as listed by the source limits assumed): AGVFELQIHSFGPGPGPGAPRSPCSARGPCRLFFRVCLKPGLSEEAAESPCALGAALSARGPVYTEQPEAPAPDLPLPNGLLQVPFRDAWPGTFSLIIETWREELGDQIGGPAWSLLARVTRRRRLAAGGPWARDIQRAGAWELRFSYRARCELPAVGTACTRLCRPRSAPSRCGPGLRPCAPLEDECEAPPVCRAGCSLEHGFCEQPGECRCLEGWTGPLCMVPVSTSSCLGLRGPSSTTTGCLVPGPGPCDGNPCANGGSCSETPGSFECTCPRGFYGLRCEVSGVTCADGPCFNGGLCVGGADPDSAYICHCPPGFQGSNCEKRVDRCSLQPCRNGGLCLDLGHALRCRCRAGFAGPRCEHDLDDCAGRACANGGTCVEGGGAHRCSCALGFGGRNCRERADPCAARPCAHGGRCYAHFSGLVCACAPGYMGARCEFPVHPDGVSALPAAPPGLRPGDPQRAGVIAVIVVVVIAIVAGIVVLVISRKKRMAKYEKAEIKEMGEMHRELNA
Sequence of DLL3 endogenously expressed on NCI-H82 cells (Q9NYJ7 27-618): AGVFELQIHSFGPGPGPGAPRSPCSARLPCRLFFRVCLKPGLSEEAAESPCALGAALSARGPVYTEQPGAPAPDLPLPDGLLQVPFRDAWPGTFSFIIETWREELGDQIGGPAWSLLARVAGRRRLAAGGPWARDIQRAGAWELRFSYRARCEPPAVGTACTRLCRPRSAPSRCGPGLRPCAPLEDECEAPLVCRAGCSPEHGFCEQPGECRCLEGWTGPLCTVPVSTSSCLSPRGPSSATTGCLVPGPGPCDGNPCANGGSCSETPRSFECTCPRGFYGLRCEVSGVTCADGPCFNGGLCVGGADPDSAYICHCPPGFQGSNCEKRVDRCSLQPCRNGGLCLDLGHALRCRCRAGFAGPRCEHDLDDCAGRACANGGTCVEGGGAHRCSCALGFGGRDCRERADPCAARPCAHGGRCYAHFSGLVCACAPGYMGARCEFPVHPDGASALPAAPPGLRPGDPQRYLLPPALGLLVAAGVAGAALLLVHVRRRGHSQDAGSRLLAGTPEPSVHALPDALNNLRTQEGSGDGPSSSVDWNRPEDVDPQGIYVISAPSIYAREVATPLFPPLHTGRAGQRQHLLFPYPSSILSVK
Sequence of human delta-like ligand 3 (DLL3) on SHP77 cells (human) (Q9NYJ7 27-618, stated change not applied): as the sequence (Q9NYJ7 27-618) above
Sequence of human DLL3 protein expressed on CHO-K1 recombinant cells (human DLL3 extracellular segment fused to EpCAM transmembrane and intracellular regions) (human) (Q9NYJ7 other isoform, or with tags, fused parts or gaps limits assumed): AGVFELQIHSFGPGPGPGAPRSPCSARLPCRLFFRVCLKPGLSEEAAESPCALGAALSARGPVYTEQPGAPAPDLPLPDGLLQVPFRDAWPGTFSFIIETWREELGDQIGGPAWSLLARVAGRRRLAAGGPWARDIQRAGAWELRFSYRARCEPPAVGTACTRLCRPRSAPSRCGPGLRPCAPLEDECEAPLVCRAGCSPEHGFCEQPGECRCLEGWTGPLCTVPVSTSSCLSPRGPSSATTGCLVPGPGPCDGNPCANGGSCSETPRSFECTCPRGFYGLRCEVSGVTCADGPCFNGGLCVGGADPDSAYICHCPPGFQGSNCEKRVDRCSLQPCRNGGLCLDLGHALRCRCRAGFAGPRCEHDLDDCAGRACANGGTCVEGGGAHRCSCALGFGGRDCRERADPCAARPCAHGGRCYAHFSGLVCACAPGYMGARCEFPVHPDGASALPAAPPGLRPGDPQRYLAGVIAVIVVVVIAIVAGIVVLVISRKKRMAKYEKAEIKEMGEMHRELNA
Sequence of mouse DLL3 on CHO-K1-mDLL3 cells (mouse) (O88516 other isoform, or with tags, fused parts or gaps limits assumed): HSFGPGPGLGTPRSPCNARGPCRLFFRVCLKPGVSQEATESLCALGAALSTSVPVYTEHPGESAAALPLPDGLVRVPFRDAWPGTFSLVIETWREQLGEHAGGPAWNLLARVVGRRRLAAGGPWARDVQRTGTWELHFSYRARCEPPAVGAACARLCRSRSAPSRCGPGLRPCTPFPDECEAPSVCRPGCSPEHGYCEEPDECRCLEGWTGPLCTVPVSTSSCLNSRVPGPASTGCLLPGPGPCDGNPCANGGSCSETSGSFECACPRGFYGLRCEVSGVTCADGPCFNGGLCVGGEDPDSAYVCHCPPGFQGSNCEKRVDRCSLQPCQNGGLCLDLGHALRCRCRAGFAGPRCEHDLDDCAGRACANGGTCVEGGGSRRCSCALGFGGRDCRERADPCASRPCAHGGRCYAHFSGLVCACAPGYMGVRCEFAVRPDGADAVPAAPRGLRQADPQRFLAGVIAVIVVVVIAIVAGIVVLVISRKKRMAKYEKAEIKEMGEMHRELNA
Sequence of human DLL1 protein (Acro, Cat. No. DL1-H52H8) (human) (O00548 18-540 limits assumed): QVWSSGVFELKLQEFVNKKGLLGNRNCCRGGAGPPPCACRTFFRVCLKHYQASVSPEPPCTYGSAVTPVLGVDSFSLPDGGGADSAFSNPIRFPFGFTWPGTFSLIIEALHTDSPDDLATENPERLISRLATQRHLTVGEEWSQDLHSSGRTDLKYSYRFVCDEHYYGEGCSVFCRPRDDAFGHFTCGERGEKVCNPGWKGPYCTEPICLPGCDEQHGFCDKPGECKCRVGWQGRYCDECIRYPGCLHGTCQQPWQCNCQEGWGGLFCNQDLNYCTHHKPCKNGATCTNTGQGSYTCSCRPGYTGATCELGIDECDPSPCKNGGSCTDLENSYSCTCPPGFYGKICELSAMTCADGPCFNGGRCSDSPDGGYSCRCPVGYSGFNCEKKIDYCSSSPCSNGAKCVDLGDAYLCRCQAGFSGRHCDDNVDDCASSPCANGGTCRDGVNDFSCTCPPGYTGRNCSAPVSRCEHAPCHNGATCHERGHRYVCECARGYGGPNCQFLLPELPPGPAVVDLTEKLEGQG
Sequence of human DLL4 protein (Acro, Cat. No. DL4-H5227) (human) (Q9NR61 27-524 limits assumed): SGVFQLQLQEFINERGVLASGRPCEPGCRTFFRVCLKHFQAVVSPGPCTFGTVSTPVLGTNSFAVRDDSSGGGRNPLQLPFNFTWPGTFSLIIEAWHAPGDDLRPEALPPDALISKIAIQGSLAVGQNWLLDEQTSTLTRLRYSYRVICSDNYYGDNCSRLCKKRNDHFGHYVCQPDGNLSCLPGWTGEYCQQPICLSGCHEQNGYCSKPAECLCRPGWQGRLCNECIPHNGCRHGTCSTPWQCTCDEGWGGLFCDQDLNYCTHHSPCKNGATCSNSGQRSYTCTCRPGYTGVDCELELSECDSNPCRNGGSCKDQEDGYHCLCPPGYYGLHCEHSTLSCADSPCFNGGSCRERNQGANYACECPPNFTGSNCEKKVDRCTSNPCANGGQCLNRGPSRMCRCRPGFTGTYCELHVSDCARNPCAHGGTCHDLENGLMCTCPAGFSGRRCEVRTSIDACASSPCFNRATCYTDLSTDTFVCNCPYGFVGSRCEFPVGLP

B1: Hab014VL1VH2-hFc (scFv, part only; not given: VL-VH linker and human IgG1 Fc, V domains shown, not shown: another chain or arm of the molecule; a dimerising Fc or GST; small tags and cut ends)
VL: DIQMTQSPSSLSASVGDRVTITCKASEDIYNRLAWYQQKPGKVPKLLISGATSLETGVPSRFSGSGSGTDFTLTISSLQPEDVATYYCQQYWSLPWTFGGGTKVEIK
VH: EVQLVQSGAEVKKPGASVKVSCKASGYTFTDYYMNWVRQAPGQRLEWMGDINPNHGDTGYNQKFTGRVTLTVDKSASTAYMELSSLRSEDTAVYYCARNFFYYGTTYGWYFDVWGQGTTVTVSS
What does the source list for B1?
MFI at 0.00128 nM [1]: 90 MFI; MFI at 0.0064 nM [1]: 94 MFI; MFI at 0.032 nM [1]: 116 MFI; MFI at 0.16 nM [1]: 192 MFI; MFI at 0.8 nM [1]: 403 MFI; MFI at 4 nM [1]: 628 MFI; MFI at 20 nM [1]: 818 MFI; MFI at 100 nM [1]: 1120 MFI; MFI [2]: 625; MFI [3]: 784; MFI [4]: 580; MFI [5]: 1100; MFI [6]: 419; MFI [7]: 14000 MFI; MFI [8]: 311 MFI; MFI [9]: 204; MFI [10]: 15100 MFI; MFI [11]: 355 MFI; MFI [12]: 130; MFI [13]: 9190 MFI; MFI [14]: 16000 MFI; MFI [15]: 268 MFI; MFI [16]: 389 MFI; MFI [17]: 110; MFI [18]: 2130 MFI; MFI [19]: 208 MFI; MFI [20]: 698 MFI; MFI [21]: 25900 MFI; MFI [22]: 148 MFI; MFI [23]: 306 MFI; MFI [24]: 31500 MFI; MFI [25]: 122 MFI; MFI [26]: 221 MFI; MFI [27]: 9960 MFI; MFI [28]: 32800 MFI; MFI [29]: 109 MFI; MFI [30]: 2190 MFI; MFI [31]: 692 MFI; MFI [32]: 306 MFI; MFI [33]: 215 MFI; Emax of OD450 nm binding value [34]: 0.1 OD450 nm; Emax of OD450 nm binding value [35]: 0.13 OD450 nm; Kd [36]: 0.0772 nM; koff [36]: 7.84e-05 s⁻¹; kon [36]: 1.02e+06 M⁻¹ s⁻¹
